{"source": "patent US20170015742A1", "about": "(published 2017)"}
{"target": "T1, human VEGF-A (human, UniProt P15692-4 27-191, limits assumed)", "T1 construct": "also called huVEGF-A", "T1 sequence (P15692 other isoform, or with tags, fused parts or gaps limits assumed)": "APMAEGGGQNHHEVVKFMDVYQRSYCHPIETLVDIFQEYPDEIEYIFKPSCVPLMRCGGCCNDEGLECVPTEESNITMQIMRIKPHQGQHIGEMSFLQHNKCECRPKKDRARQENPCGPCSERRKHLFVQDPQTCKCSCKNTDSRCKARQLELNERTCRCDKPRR", "assay": "SPR (Biacore), antibody captured by anti-human Fc, VEGF-A injected", "experimental": "(§1) For example, approximately 9000 RU of goat anti-human Fc specific polyclonal antibody (Thermo Fisher Scientific Inc., Rockford, Ill.) diluted in 10 mM sodium acetate (pH 4.5) is directly immobilized across a CM5 research grade biosensor chip using a standard amine coupling kit according to manufacturer's instructions and procedures at 25 μg/ml. Unreacted moieties on the biosensor surface were blocked with ethanolamine. For kinetic analysis, rate equations derived from the 1:1 Langmuir binding model were fitted simultaneously to multiple antigen injections (using global fit analysis) with the use of Scrubber 2 (BioLogic Software), Biacore Biaevaluation 4.0.1 software or Biacore T100 Evaluation software. Purified antibodies or DVD-Ig molecules were diluted in running buffer for capture across goat anti-human Fc reaction surfaces. Antibodies or DVD-Ig molecules to be captured as a ligand (1 μg/ml) were injected over reaction matrices at a flow rate of 10 μl/minute. During the assay, all measurements were referenced against the capture surface alone (i.e., with no captured antibody or DVD-Ig molecule). […] The equilibrium dissociation constant KD (M) of the reaction between antibodies and the target antigen was then calculated from the kinetic rate constants by the following formula: KD=Koff/Kₒₙ. Binding was recorded as a function of time and kinetic rate constants were calculated.", "units": {"Kd": "pM", "kon": "M⁻¹ s⁻¹"}}
{"binder": "hBEW-5C3.1 (antibody, V domains shown, Humanized IgG made from pHybE vectors in HEK293 cells) VH: EIQLVQSGSELKKPGASVKVSCKASGYTFTNYGVYWVKQAPGQGLEYMGWINTETGKPTYADDFKGRFVFSLDTSVSTAYLQISSLKAEDTAVYYCARARQLDWFVYWGQGTLVTVSS VL: DTVLTQSPATLSLSPGERATLSCRARESLTTSLSWFQQKPGQQPRLLIYGASKLESGVPARFSGSGSGTDFTLTISSLEPEDFAVYFCQQSWYDPPTFGGGTKVEIK", "Kd": 6, "kon": "1.1e+07"}
{"binder": "hBEW-5C3.4 (antibody, V domains shown, Humanized IgG made from pHybE vectors in HEK293 cells) VH: EIQLVQSGSELKKPGASVKVSCKASGYTFTNYGVYWVKQAPGQGLEYMGWINTETGKPTYADDFKGRFVFSLDTSVSTAYLQISSLKAEDTAVYYCARARQLDWFVYWGQGTLVTVSS VL: DTQLTQSPSSLSASVGDRVTISCRARESLTTSLSWFQQKPGKQPKLLIYGASKLESGVPSRFSGSGSGTDFTLTISSLQPEDFATYFCQQSWYDPPTFGGGTKVEIK", "Kd": 8.6, "kon": "9.9e+06"}
{"binder": "hBEW-9E10.1 (antibody, V domains shown, Humanized IgG made from pHybE vectors in HEK293 cells; also called AB642 (9E10.1)) VH: EIQLVQSGSELKKPGASVKVSCKASGYTFTNYGMYWVKQAPGQGLEYMGWIDTETGRPTYADDFKGRFVFSLDTSVSTAYLQISSLKAEDTAVYFCARWSGDTTGIRGPWFAYWGQGTLVTVSS VL: DIRMTQSPSSLSASVGDRVTIECLASEDIYSDLAWYQQKPGKSPKLLIYNANGLQNGVPSRFSGSGSGTDYSLTISSLQPEDVATYFCQQYNYFPGTFGQGTKLEIK", "Kd": 2.1, "kon": "1.2e+07"}
{"binder": "hBEW-9E10.2 (antibody, V domains shown, Humanized IgG made from pHybE vectors in HEK293 cells) VH: EIQLVQSGAEVKKPGSSVKVSCKASGYTFTNYGMYWVKQAPGQGLEYMGWIDTETGRPTYADDFKGRFTFTADKSTSTAYMELSSLRSEDTAVYFCARWSGDTTGIRGPWFAYWGQGTLVTVSS VL: DIRMTQSPSSLSASVGDRVTIECLASEDIYSDLAWYQQKPGKSPKLLIYNANGLQNGVPSRFSGSGSGTDYSLTISSLQPEDVATYFCQQYNYFPGTFGQGTKLEIK", "Kd": 12, "kon": "1.6e+07"}
{"binder": "hBEW-9E10.3 (antibody, V domains shown, Humanized IgG made from pHybE vectors in HEK293 cells) VH: EVQLVQSGAEVKKPGSSVKVSCKASGYTFTNYGMYWVRQAPGQGLEWMGWIDTETGRPTYADDFKGRFTFTADKSTSTAYMELSSLRSEDTAVYYCARWSGDTTGIRGPWFAYWGQGTLVTVSS VL: DIRMTQSPSSLSASVGDRVTIECLASEDIYSDLAWYQQKPGKSPKLLIYNANGLQNGVPSRFSGSGSGTDYSLTISSLQPEDVATYFCQQYNYFPGTFGQGTKLEIK", "Kd": 3.2, "kon": "1.3e+07"}
{"binder": "hBEW-9E10.5 (antibody, V domains shown, Humanized IgG made from pHybE vectors in HEK293 cells) VH: EIQLVQSGAEVKKPGSSVKVSCKASGYTFTNYGMYWVKQAPGQGLEYMGWIDTETGRPTYADDFKGRFTFTADKSTSTAYMELSSLRSEDTAVYFCARWSGDTTGIRGPWFAYWGQGTLVTVSS VL: DIRMTQSPSSLSASVGDRVTITCLASEDIYSDLAWYQQKPGKSPKLLIYNANGLQNGVPSRFSGSGSGTDYTLTISSLQPEDVATYFCQQYNYFPGTFGQGTKLEIK", "Kd": 15, "kon": "1.6e+07"}
{"binder": "hBEW-9E10.4 (antibody, V domains shown, Humanized IgG made from pHybE vectors in HEK293 cells) VH: EIQLVQSGSELKKPGASVKVSCKASGYTFTNYGMYWVKQAPGQGLEYMGWIDTETGRPTYADDFKGRFVFSLDTSVSTAYLQISSLKAEDTAVYFCARWSGDTTGIRGPWFAYWGQGTLVTVSS VL: DIRMTQSPSSLSASVGDRVTITCLASEDIYSDLAWYQQKPGKSPKLLIYNANGLQNGVPSRFSGSGSGTDYTLTISSLQPEDVATYFCQQYNYFPGTFGQGTKLEIK", "Kd": 2.1, "kon": "1.2e+07"}
{"binder": "hBEW-9E10.6 (antibody, V domains shown, Humanized IgG made from pHybE vectors in HEK293 cells) VH: EVQLVQSGAEVKKPGSSVKVSCKASGYTFTNYGMYWVRQAPGQGLEWMGWIDTETGRPTYADDFKGRFTFTADKSTSTAYMELSSLRSEDTAVYYCARWSGDTTGIRGPWFAYWGQGTLVTVSS VL: DIRMTQSPSSLSASVGDRVTITCLASEDIYSDLAWYQQKPGKSPKLLIYNANGLQNGVPSRFSGSGSGTDYTLTISSLQPEDVATYFCQQYNYFPGTFGQGTKLEIK", "Kd": 2.6, "kon": "1.5e+07"}
{"binder": "hBEW-1B10.1 (antibody, V domains shown, Humanized IgG made from pHybE vectors in HEK293 cells) VH: EVQLVESGGGLVQPGGSLRLSCAASGFSFSKYDMAWFRQAPGKGLEWVASITTSGVGTYYRDSVKGRFTVSRDNAKSTLYLQMNSLRAEDTAVYYCARGYGAMDAWGQGTTVTVSS VL: DIQMTQSPSSLSASVGDRVTITCKASQDIDDYLSWYQQKPGKSPKLVIYAATRLADGVPSRFSGSGSGTDYTLTISSLQPEDFATYYCLQSSSTPWTFGGGTKVEIK", "Kd": 18, "kon": "7.6e+06"}
{"binder": "hBEW-1B10.2 (antibody, V domains shown, Humanized IgG made from pHybE vectors in HEK293 cells) VH: EVQLVESGGGLVQPGGSLRLSCAASGFSFSKYDMAWFRQAPGKGLEWVASITTSGVGTYYRDSVKGRFTVSRDNAKNSLYLQMNSLRAEDTAVYYCARGYGAMDAWGQGTTVTVSS VL: DIQMTQSPSSLSASVGDRVTITCKASQDIDDYLSWYQQKPGKSPKLVIYAATRLADGVPSRFSGSGSGTDYTLTISSLQPEDFATYYCLQSSSTPWTFGGGTKVEIK", "Kd": 20, "kon": "7.5e+06"}
{"binder": "hBEW-9A8.17 (antibody, V domains shown, Humanized IgG made from pHybE vectors in HEK293 cells) VH: EIQLVQSGSELKKPGASVKVSCKASGYTFTNYGMYWVKQAPGQGLEYMGWINTETGKPIYADDFKGRFVFSLDTSVSTAYLQISSLKAEDTAVYYCARVDYDGSFWFAYWGQGTLVTVSS VL: ETVLTQSPATLSLSPGERATLSCRASESVSTVIHWYQQKPGQQPRLLIHGASNLESGVPARFSGSGSGTDFTLTISSLEPEDFAVYFCQQHWNDPPTFGQGTKLEIK", "Kd": 1.7, "kon": "7.9e+06"}
{"binder": "hBEW-9A8.21 (antibody, V domains shown, Humanized IgG made from pHybE vectors in HEK293 cells) VH: EIQLVQSGAEVKKPGASVKVSCKASGYTFTNYGMYWVRQAPGQGLEWMGWINTETGKPIYADDFKGRFTFTLDTSTSTAYMELRSLRSDDTAVYYCARVDYDGSFWFAYWGQGTLVTVSS VL: ETVLTQSPATLSLSPGERATLSCRASESVSTVIHWYQQKPGQQPRLLIHGASNLESGVPARFSGSGSGTDFTLTISSLEPEDFAVYFCQQHWNDPPTFGQGTKLEIK", "Kd": 6.7, "kon": "5.8e+06"}
{"binder": "hBEW-5C3.5 (antibody, V domains shown, Humanized IgG made from pHybE vectors in HEK293 cells) VH: EIQLVQSGAEVKKPGSSVKVSCKASGYTFTNYGVYWVKQAPGQGLEYMGWINTETGKPTYADDFKGRFTFTLDKSTSTAYMELSSLRSEDTAVYFCARARQLDWFVYWGQGTLVTVSS VL: DTQLTQSPSSLSASVGDRVTISCRARESLTTSLSWFQQKPGKQPKLLIYGASKLESGVPSRFSGSGSGTDFTLTISSLQPEDFATYFCQQSWYDPPTFGGGTKVEIK", "Kd": 8.5, "kon": "1.2e+07"}
{"target": "T2, Human PDGF-BB (human, UniProt P01127 82-190)", "T2 construct": "Recombinant human PDGF-BB, a homodimer of two B chains; also called hPDGF-BB; huPDGF-BB", "T2 sequence (P01127 82-190 limits assumed)": "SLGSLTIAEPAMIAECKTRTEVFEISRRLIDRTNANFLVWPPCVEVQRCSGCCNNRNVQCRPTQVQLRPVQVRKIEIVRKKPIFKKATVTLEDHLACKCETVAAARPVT", "assay": "SPR (Biacore), antibody captured via anti-human Fc, antigen in solution", "experimental": "as §1", "units": {"Kd": "pM", "kon": "M⁻¹ s⁻¹"}}
{"binder": "hBDI-9E8.1 (antibody, V domains shown, Humanized IgG) VH: EVTLRESGPALVKPTQTLTLTCTFSGFSLSTYGMGVGWIRQPPGKALEWLANIWWDDDKYYNPSLKNRLTISKDTSKNQVVLTMTNMDPVDTATYYCARIESIGTTYSFDYWGQGTMVTVSS VL: NFMLTQPHSVSESPGKTVTISCERSSGDIGDSYVSWYQQRPGSSPTTVIYADDQRPSGVPDRFSGSIDSSSNSASLTISGLKTEDEADYYCQSYDINIDIVFGGGTKLTVL", "Kd": "≤ 560", "kon": "≥ 1e+07"}
{"binder": "hBDI-9E8.3 (antibody, V domains shown, Humanized IgG) VH: EVTLRESGPALVKPTQTLTLTCTFSGFSLSTYGMGVGWIRQPPGKALEWLANIWWDDDKYYNPSLKNRLTISKDTSKNQVVLTMTNMDPVDTATYYCARIESIGTTYSFDYWGQGTMVTVSS VL: EIVLTQSPGTLSLSPGERATLSCERSSGDIGDSYVSWYQQKPGQAPRLLIYADDQRPSGIPDRFSGSGSGTDFTLTISRLEPEDFAVYYCQSYDINIDIVFGGGTKVEIK", "Kd": "≤ 65", "kon": "≥ 1e+07"}
{"binder": "hBDI-9E8.6 (antibody, V domains shown, Humanized IgG) VH: EVTLRESGPALVKPTQTLTLTCTFSGFSLSTYGMGVGWIRQPPGKGLEWLANIWWDDDKYYNPSLKNRLTISKDTSKNQAVLTITNMDPVDTATYYCARIESIGTTYSFDYWGQGTMVTVSS VL: NFMLTQPHSVSESPGKTVTISCERSSGDIGDSYVSWYQQRPGSPPTNVIYADDQRPSGVPDRFSGSIDSSSNSASLTISGLKTEDEADYFCQSYDINIDIVFGGGTKLTVL", "Kd": "≤ 210", "kon": "≥ 1e+07"}
{"binder": "hBDI-9E8.4 (antibody, V domains shown, Humanized IgG) VH: EVTLRESGPALVKPTQTLTLTCTFSGFSLSTYGMGVGWIRQPPGKALEWLANIWWDDDKYYNPSLKNRLTISKDTSKNQVVLTMTNMDPVDTATYYCARIESIGTTYSFDYWGQGTMVTVSS VL: EFVLTQSPGTLSLSPGERATLSCERSSGDIGDSYVSWYQQKPGQAPRLVIYADDQRPSGIPDRFSGSGSGTDFTLTISRLEPEDFAVYYCQSYDINIDIVFGGGTKVEIK", "Kd": "≤ 21", "kon": "> 1e+07"}
{"binder": "hBDI-9E8.5 (antibody, V domains shown, Humanized IgG) VH: EVTLRESGPALVKPTQTLTLTCTFSGFSLSTYGMGVGWIRQPPGKGLEWLANIWWDDDKYYNPSLKNRLTISKDTSKNQAVLTITNMDPVDTATYYCARIESIGTTYSFDYWGQGTMVTVSS VL: NFMLTQPHSVSESPGKTVTISCERSSGDIGDSYVSWYQQRPGSSPTTVIYADDQRPSGVPDRFSGSIDSSSNSASLTISGLKTEDEADYYCQSYDINIDIVFGGGTKLTVL", "Kd": "≤ 210", "kon": "≥ 1e+07"}
{"binder": "hBDI-9E8.2 (antibody, V domains shown, Humanized IgG) VH: EVTLRESGPALVKPTQTLTLTCTFSGFSLSTYGMGVGWIRQPPGKALEWLANIWWDDDKYYNPSLKNRLTISKDTSKNQVVLTMTNMDPVDTATYYCARIESIGTTYSFDYWGQGTMVTVSS VL: NFMLTQPHSVSESPGKTVTISCERSSGDIGDSYVSWYQQRPGSPPTNVIYADDQRPSGVPDRFSGSIDSSSNSASLTISGLKTEDEADYFCQSYDINIDIVFGGGTKLTVL", "Kd": "≤ 510", "kon": "≥ 1e+07"}
